Reference: the supplement of paper PMC7877785
± gives the uncertainty stated by the source.

Test: self-splicing fitness, log relative to wild type (ln ratio); higher = more splicing; Tetrahymena group I intron in knt gene, E. coli kanamycin selection, DiMSum; sequences stand for … in CUCUCU…GGAGGGAAAAGUUAUCAGGCAUGCACCUGGUAGCUAGUCUUUAAACCAAUAGAUUGCAUCGGUUUAAAAGGCAAGACCGUCAAAUUGCGGGAAAGGGGUCAACAGCCGUUCAGUACCAAGUCUCAGGGGAAACUUUGAGAUGGCCUUGCAAAGGGUAUGGUAAUAAGCUGACGGACAUGGUCCUAACCACGCAGCCAAGUCCUAAGUCAACAGAUCUUCUGUUGAUAUGGAUGCAGUUCACAGACUAAAUGUCGGUCGGGGAAGAUGUAUUCUUCUCAUAAGAUAUAGUCGGACCUCUCCUUAAUGGGAGCUAGCGGAUGAAGUGAUGCAACACUGGAGCCGCUGGGAACUAAUUUGUAUGCGAAAGUAUAUUGAUUAGUUUUGGAGUACUCGUGGUCG
How it was run: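 The eight P1ex-region nucleotides of an intron in the knt kanamycin-resistance gene on pET-22b(+) were all randomised and the library put into E. coli BL21(DE3). Six replicate transformations were grown overnight at 37°C or 30°C on LB agar with or without 25 μg/mL kanamycin, together with 100 μg/mL carbenicillin, 50 μM IPTG and 0.2% rhamnose. Colonies were pooled and amplicon-sequenced on an Illumina HiSeq 2500. Fitness from DiMSum is the error-weighted combination of wild-type-normalised replicate fold changes, kanamycin over none.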

| Sequence | self-splicing fitness (ln) (30 °C) | self-splicing fitness (ln) (37 °C) |
| --- | --- | --- |
| ACGUAGCAAUAUUACGUGCC | -1.54 ± 0.22 | -0.492 ± 0.24 |
| ACUAAGCAAUAUUACGAAUA | -2.99 ± 0.23 | -2.55 ± 0.25 |
| ACUAAGCAAUAUUACGAGUG | -1.42 ± 0.08 | -0.758 ± 0.11 |
| ACUAAGCAAUAUUACGAUGG | -0.371 ± 0.1 | -0.661 ± 0.16 |
| ACUAAGCAAUAUUACGCAAA | -2.51 ± 0.24 | -1.77 ± 0.24 |
| ACUAAGCAAUAUUACGCAAC | -3.28 ± 0.26 | -1.17 ± 0.27 |
| ACUAAGCAAUAUUACGCAAG | -1.79 ± 0.074 | -1.49 ± 0.096 |
| ACUAAGCAAUAUUACGCACA | -1.23 ± 0.11 | 0.0989 ± 0.1 |
| ACUAAGCAAUAUUACGCGCG | -0.732 ± 0.096 | -0.0128 ± 0.13 |
| ACUAAGCAAUAUUACGCGGG | -2.3 ± 0.18 | -1.36 ± 0.15 |
| ACUAAGCAAUAUUACGCUAG | -2.68 ± 0.14 | -1.82 ± 0.17 |
| ACUAAGCAAUAUUACGCUGU | -2.77 ± 0.17 | -2.58 ± 0.35 |
| ACUAAGCAAUAUUACGGAAC | -3.33 ± 0.29 | -2.77 ± 0.32 |
| ACUAAGCAAUAUUACGGACC | -1.4 ± 0.15 | -0.596 ± 0.19 |
| ACUAAGCAAUAUUACGGAGA | -1.36 ± 0.23 | -3.35 ± 0.33 |
| ACUAAGCAAUAUUACGGCAU | -0.539 ± 0.062 | -0.563 ± 0.09 |
| ACUAAGCAAUAUUACGGCUA | -0.685 ± 0.085 | 0.0711 ± 0.11 |
| ACUAAGCAAUAUUACGGGAA | -2.17 ± 0.11 | -1.75 ± 0.15 |
| ACUAAGCAAUAUUACGGGCG | -0.856 ± 0.091 | -0.529 ± 0.1 |
| ACUAAGCAAUAUUACGGGUG | -0.981 ± 0.06 | -0.673 ± 0.097 |
| ACUAAGCAAUAUUACGGGUU | -3.17 ± 0.16 | -2.34 ± 0.23 |
| ACUAAGCAAUAUUACGGUAA | -1.56 ± 0.17 | -1.92 ± 0.18 |
| ACUAAGCAAUAUUACGGUCC | -2.35 ± 0.2 | -1.04 ± 0.23 |
| ACUAAGCAAUAUUACGGUCG | -2.89 ± 0.16 | -1.47 ± 0.15 |

| Sequence | self-splicing fitness (ln) (30 °C) | self-splicing fitness (ln) (37 °C) |
| --- | --- | --- |
| ACUAAGCAAUAUUACGGUGA | -1.54 ± 0.093 | -0.619 ± 0.13 |
| ACUAAGCAAUAUUACGUAAG | -1.05 ± 0.069 | -0.663 ± 0.089 |
| ACUAAGCAAUAUUACGUAUA | -1.9 ± 0.13 | -0.679 ± 0.12 |
| ACUAAGCAAUAUUACGUCCG | -1.69 ± 0.12 | -0.322 ± 0.17 |
| ACUAAGCAAUAUUACGUGAA | -1.24 ± 0.074 | -0.939 ± 0.1 |
| ACUAAGCAAUAUUACGUGGC | -3.03 ± 0.14 | -2.57 ± 0.17 |
| ACUCAGCAAUAUUACGAAAC | -2.62 ± 0.092 | -1.43 ± 0.11 |
| ACUCAGCAAUAUUACGAACA | -1.16 ± 0.076 | -0.892 ± 0.09 |
| ACUCAGCAAUAUUACGAAGU | -3 ± 0.14 | -1.75 ± 0.14 |
| ACUCAGCAAUAUUACGAAUC | – | -1.05 ± 0.32 |
| ACUCAGCAAUAUUACGACAA | -0.977 ± 0.27 | -1.18 ± 0.24 |
| ACUCAGCAAUAUUACGACUG | -3.86 ± 0.23 | -1.47 ± 0.14 |
| ACUCAGCAAUAUUACGAGAC | -2.7 ± 0.24 | -1.87 ± 0.17 |
| ACUCAGCAAUAUUACGAGAG | -2.02 ± 0.14 | -0.637 ± 0.12 |
| ACUCAGCAAUAUUACGAGGC | -3.27 ± 0.34 | -2.56 ± 0.3 |
| ACUCAGCAAUAUUACGAUAA | -1.25 ± 0.078 | -0.67 ± 0.097 |
| ACUCAGCAAUAUUACGAUGC | -0.776 ± 0.066 | -0.0529 ± 0.075 |
| ACUCAGCAAUAUUACGAUGG | -1.1 ± 0.063 | -0.87 ± 0.1 |
| ACUCAGCAAUAUUACGCACA | -0.835 ± 0.083 | -0.539 ± 0.1 |
| ACUCAGCAAUAUUACGCCAC | -2.88 ± 0.21 | – |
| ACUCAGCAAUAUUACGCCCU | -0.136 ± 0.15 | 0.51 ± 0.17 |
| ACUCAGCAAUAUUACGCUGU | -3.46 ± 0.19 | -1.4 ± 0.17 |
| ACUCAGCAAUAUUACGGAAG | -0.707 ± 0.088 | -0.89 ± 0.13 |
| ACUCAGCAAUAUUACGGACU | 0.409 ± 0.086 | -0.57 ± 0.087 |

| Sequence | self-splicing fitness (ln) (30 °C) | self-splicing fitness (ln) (37 °C) |
| --- | --- | --- |
| ACUCAGCAAUAUUACGGUAG | -3.73 ± 0.13 | -2.92 ± 0.15 |
| ACUCAGCAAUAUUACGGUGA | -2.73 ± 0.12 | -1.23 ± 0.095 |
| ACUCAGCAAUAUUACGUCGU | -1.42 ± 0.07 | -0.573 ± 0.081 |
| ACUCAGCAAUAUUACGUGAC | -3.15 ± 0.14 | -0.561 ± 0.11 |
| ACUCAGCAAUAUUACGUUUA | -1.54 ± 0.078 | -0.51 ± 0.086 |
| ACUGAGCAAUAUUACGAAAU | -2.94 ± 0.24 | -1.72 ± 0.22 |
| ACUGAGCAAUAUUACGAAUU | -2.97 ± 0.29 | -2.1 ± 0.24 |
| ACUGAGCAAUAUUACGACCA | -2.57 ± 0.39 | -1.1 ± 0.28 |
| ACUGAGCAAUAUUACGAUUC | -2.78 ± 0.5 | -1.57 ± 0.31 |
| ACUGAGCAAUAUUACGCACG | -2.17 ± 0.15 | -1.11 ± 0.17 |
| ACUGAGCAAUAUUACGCAGU | -2.36 ± 0.24 | -1.35 ± 0.2 |
| ACUGAGCAAUAUUACGCAUU | -2.71 ± 0.1 | -1.29 ± 0.11 |
| ACUGAGCAAUAUUACGCCCU | -1.87 ± 0.33 | -1.05 ± 0.44 |
| ACUGAGCAAUAUUACGCGCA | -3.04 ± 0.42 | -1.66 ± 0.36 |
| ACUGAGCAAUAUUACGGAGA | -3.46 ± 0.21 | -3.08 ± 0.27 |
| ACUGAGCAAUAUUACGGAUA | -3.08 ± 0.28 | -1.77 ± 0.26 |
| ACUGAGCAAUAUUACGGCAG | -1.75 ± 0.12 | -0.311 ± 0.15 |
| ACUGAGCAAUAUUACGGCCA | -2.43 ± 0.28 | -2.07 ± 0.33 |
| ACUGAGCAAUAUUACGGUAG | -3.12 ± 0.18 | -1.03 ± 0.21 |
| ACUGAGCAAUAUUACGGUCA | -3.09 ± 0.21 | -1.51 ± 0.15 |
| ACUGAGCAAUAUUACGGUUA | -2.56 ± 0.21 | -1.9 ± 0.17 |
| ACUGAGCAAUAUUACGUAAC | -4.25 ± 0.25 | -3.36 ± 0.3 |
| ACUGAGCAAUAUUACGUAAG | -2.02 ± 0.086 | -0.834 ± 0.1 |
| ACUGAGCAAUAUUACGUAGG | -2.14 ± 0.14 | -1.27 ± 0.18 |

| Sequence | self-splicing fitness (ln) (30 °C) | self-splicing fitness (ln) (37 °C) |
| --- | --- | --- |
| ACUGAGCAAUAUUACGUCAA | -3.09 ± 0.23 | -2.31 ± 0.19 |
| ACUGAGCAAUAUUACGUCGU | -2.87 ± 0.16 | -1.96 ± 0.14 |
| ACUGAGCAAUAUUACGUGCG | -3 ± 0.13 | -1.28 ± 0.11 |
| ACUUAGCAAUAUUACGAACA | -1.35 ± 0.2 | -0.724 ± 0.19 |
| ACUUAGCAAUAUUACGAAGG | -2.08 ± 0.12 | -1.33 ± 0.17 |
| ACUUAGCAAUAUUACGACGG | -0.755 ± 0.081 | -0.0301 ± 0.11 |
| ACUUAGCAAUAUUACGAGCU | -0.379 ± 0.099 | -0.0037 ± 0.14 |
| ACUUAGCAAUAUUACGAGUC | – | -3.01 ± 0.35 |
| ACUUAGCAAUAUUACGCAAG | -2.24 ± 0.17 | -1.32 ± 0.14 |
| ACUUAGCAAUAUUACGCAUA | -1.74 ± 0.12 | -1.42 ± 0.14 |
| ACUUAGCAAUAUUACGCCUG | -1.12 ± 0.18 | -0.484 ± 0.19 |
| ACUUAGCAAUAUUACGCUUA | -1.26 ± 0.15 | -1.75 ± 0.21 |
| ACUUAGCAAUAUUACGCUUC | -2.32 ± 0.19 | -2.18 ± 0.45 |
| ACUUAGCAAUAUUACGGAGG | -2.19 ± 0.13 | -1.48 ± 0.16 |
| ACUUAGCAAUAUUACGGGGG | -2.98 ± 0.23 | -1.96 ± 0.21 |
| ACUUAGCAAUAUUACGUAAC | -2.9 ± 0.12 | -2.43 ± 0.2 |
| ACUUAGCAAUAUUACGUACC | -2.17 ± 0.23 | -1.06 ± 0.23 |
| ACUUAGCAAUAUUACGUCUC | -2.31 ± 0.25 | -3.34 ± 0.32 |
| ACUUAGCAAUAUUACGUUAC | -3.55 ± 0.26 | -2.55 ± 0.38 |
| ACUUAGCAAUAUUACGUUAU | -3.66 ± 0.22 | -1.31 ± 0.16 |
| AGAAAGCAAUAUUACGAAAG | -3.93 ± 0.21 | -1.94 ± 0.18 |
| AGAAAGCAAUAUUACGAGAU | -3.45 ± 0.24 | -1.99 ± 0.2 |
| AGAAAGCAAUAUUACGAGGA | -3.15 ± 0.15 | -2.71 ± 0.16 |
| AGAAAGCAAUAUUACGAGUC | -3.82 ± 0.33 | -1.57 ± 0.18 |
